{"source": "paper PMC4830470", "about": "(Nature, 2015)", "proteins": {"B1": {"name": "human class A J-protein DNAJA2 (JA2), wild type (natural protein)", "chain": "not shown"}}, "biological_target": "the molecule itself", "assay": "SEC"}
{"protein": "B1", "values": [{"measurement": "stoichiometry N", "result": 2}]}
